Results as given in EP4473018A2 (dated 2024).

Key:
[1] = target: T1, Recombinant truncated human his-tag B7-H3 protein (amino acids 1-461 of SEQ ID NO:1 with a carboxy terminal … (human, UniProt Q5ZPR3 29-461)); test: SPR (BIAcore 3000), antibody captured by anti-human Fc, his-tagged B7-H3 as analyte from 100 nM, 1:1 model
T1 construct: also called his-tagged B7-H3 protein; recombinant human his-tagged B7-H3 protein
T1 sequence: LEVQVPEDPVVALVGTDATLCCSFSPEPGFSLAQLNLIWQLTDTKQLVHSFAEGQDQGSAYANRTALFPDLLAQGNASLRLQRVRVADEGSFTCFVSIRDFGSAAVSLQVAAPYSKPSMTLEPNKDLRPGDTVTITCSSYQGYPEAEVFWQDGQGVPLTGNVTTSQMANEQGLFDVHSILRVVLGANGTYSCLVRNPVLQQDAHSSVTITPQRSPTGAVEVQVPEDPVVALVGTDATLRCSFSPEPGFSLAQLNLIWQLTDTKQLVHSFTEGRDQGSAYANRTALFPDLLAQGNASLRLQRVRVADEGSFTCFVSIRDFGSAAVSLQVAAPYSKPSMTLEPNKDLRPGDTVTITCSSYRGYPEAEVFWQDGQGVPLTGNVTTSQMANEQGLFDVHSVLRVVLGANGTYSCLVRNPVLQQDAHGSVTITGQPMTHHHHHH

[2] = target: T1, Recombinant truncated human his-tag …; test: SPR (Biacore T200), antibody captured by anti-human Fc, his-tagged B7-H3 as analyte from 100 nM, 1:1 model
[3] = target: T2, rat B7-H3 antigen protein (Sino Biologicals; Cat. No. 80380-R02H-20) (rat, UniProt Q7TPB4 29-248); test: ELISA, antigen coated at 50 ng/well
T2 construct: Bought protein
T2 sequence (looked up): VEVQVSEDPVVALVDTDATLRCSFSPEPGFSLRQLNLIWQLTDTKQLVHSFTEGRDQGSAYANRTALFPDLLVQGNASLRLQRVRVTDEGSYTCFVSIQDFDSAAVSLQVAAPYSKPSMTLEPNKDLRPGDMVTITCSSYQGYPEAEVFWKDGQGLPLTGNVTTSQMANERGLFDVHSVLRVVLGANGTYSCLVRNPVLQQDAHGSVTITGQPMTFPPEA

[4] = target: T3, Human B7-H3 protein (UniProt Q5ZPR3-1) on cells (human, UniProt Q5ZPR3 29-534); test: flow cytometry on human osteosarcoma U2OS cells
T3 construct: This is endogenous B7-H3 on U2OS, SK-N-BE(2), A375, A549 and Panc-1 cells, on monocyte-derived dendritic cells and in patient tumour tissue; also called CD276; surface antigen expressed by human cancer cells
T3 sequence: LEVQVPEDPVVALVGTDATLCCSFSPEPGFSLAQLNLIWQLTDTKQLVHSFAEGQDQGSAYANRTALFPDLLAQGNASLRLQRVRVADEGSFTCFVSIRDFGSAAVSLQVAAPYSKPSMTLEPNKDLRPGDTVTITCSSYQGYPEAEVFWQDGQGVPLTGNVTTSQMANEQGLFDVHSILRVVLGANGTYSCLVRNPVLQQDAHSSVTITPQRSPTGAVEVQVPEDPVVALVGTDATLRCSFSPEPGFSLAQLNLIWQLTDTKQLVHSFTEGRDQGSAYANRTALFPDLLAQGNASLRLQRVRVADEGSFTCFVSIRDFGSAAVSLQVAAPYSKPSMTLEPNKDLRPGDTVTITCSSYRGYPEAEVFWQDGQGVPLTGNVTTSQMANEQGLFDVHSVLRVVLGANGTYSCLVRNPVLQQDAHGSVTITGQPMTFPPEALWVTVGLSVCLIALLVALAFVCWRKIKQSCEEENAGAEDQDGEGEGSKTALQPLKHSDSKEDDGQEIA

human B7-H7 = target: T4, human B7-H7 (human, UniProt Q9UM44 23-344); test: ELISA, antigen coated at 50 ng/well, antibody serially diluted
T4 construct: Bought protein; also called HHLA2
T4 sequence (looked up): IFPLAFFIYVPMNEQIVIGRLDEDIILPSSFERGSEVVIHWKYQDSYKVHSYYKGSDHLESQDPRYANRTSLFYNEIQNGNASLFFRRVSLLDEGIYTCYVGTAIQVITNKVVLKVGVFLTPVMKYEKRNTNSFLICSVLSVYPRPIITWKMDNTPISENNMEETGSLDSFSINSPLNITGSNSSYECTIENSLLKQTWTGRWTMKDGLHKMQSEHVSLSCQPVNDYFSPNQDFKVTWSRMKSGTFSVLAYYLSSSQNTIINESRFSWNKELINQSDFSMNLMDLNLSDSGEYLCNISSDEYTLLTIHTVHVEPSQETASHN

human B7.2 = target: T5, human B7.2 (human, UniProt P42081 24-247, limits assumed); test: as above
T5 construct: Bought protein; also called CD86
T5 sequence (looked up): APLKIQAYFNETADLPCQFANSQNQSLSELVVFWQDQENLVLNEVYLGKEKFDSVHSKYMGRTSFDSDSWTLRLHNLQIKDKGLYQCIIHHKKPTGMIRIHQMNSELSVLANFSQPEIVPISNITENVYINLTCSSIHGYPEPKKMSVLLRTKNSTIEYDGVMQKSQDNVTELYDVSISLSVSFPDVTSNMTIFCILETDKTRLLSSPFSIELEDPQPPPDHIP

human B7-H5 = target: T6, human B7-H5 (human, UniProt Q9H7M9 33-194); test: as above
T6 construct: Bought protein; also called VISTA; GI24

human B7.1 = target: T7, human B7.1 (human, UniProt P33681 35-242); test: as above
T7 construct: Bought protein; also called CD80
T7 sequence (looked up): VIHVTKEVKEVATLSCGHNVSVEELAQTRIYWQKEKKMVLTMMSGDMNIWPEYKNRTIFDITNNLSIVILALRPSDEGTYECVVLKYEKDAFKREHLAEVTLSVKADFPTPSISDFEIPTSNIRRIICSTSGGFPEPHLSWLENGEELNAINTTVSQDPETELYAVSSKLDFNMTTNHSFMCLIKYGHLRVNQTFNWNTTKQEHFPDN

human B7-H4 = target: T8, human B7-H4 (human, UniProt Q7Z7D3 25-258, limits assumed); test: as above
T8 construct: Bought protein; also called B7S1; B7x
T8 sequence (looked up): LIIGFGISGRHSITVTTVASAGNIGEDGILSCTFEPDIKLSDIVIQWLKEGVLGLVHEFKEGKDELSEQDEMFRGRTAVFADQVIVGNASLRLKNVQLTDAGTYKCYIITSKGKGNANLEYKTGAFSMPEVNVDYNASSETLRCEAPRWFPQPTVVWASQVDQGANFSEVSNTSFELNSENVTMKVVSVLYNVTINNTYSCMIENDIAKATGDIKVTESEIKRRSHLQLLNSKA

human B7-H1 = target: T9, human B7-H1 (human, UniProt Q9NZQ7 19-239); test: as above
T9 construct: Bought protein; also called PD-L1; CD274
T9 sequence (Q9NZQ7 19-239 limits assumed): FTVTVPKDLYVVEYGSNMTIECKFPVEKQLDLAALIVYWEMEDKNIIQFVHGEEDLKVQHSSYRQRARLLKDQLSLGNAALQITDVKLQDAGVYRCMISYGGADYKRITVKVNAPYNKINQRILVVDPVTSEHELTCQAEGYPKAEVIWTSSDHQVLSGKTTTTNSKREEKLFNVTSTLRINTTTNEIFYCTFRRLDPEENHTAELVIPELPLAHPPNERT

human B7-H6 = target: T10, human B7-H6 (human, UniProt Q68D85 25-262); test: as above
T10 construct: Bought protein; also called NCR3LG1
T10 sequence (looked up): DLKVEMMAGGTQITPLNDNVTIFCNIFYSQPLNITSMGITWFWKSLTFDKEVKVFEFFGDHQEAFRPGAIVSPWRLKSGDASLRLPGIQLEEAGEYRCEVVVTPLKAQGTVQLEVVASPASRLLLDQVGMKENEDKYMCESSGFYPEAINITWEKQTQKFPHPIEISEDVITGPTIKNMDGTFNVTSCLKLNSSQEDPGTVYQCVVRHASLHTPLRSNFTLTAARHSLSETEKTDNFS

human B7-H2 = target: T11, human B7-H2 (human, UniProt O75144 19-258, limits assumed); test: as above
T11 construct: Bought protein; also called ICOSL
T11 sequence (looked up): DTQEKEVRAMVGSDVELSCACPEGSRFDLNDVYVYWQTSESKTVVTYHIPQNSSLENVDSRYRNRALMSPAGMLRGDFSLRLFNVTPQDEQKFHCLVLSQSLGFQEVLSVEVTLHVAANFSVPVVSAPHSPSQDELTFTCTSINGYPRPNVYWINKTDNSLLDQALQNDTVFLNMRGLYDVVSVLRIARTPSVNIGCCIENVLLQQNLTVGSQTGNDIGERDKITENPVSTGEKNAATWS

B1: B3-D1 (antibody, V domains shown)
VH: EVQLVQSGAELKKPGASVKVSCKASGHTFTSYYIHWVRQAPGQGLEWMGIINPSGDSTSYAQKFQGRVTMTRDTSTSTVYMELSSLTSEDTAVYYCARAIDYGGPYWYLDLWGRGTLVTVSS
VL: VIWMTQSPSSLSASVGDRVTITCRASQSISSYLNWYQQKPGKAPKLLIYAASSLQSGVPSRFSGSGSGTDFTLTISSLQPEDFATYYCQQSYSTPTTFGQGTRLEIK
notes: It was captured by anti-human Fc
binding result [1]: binds

B2: Enoblituzumab (B7-H3 Macrogenics; MGA271; MG-B7-H3) (antibody, human IgG1, kappa, V domains shown)
VH: EVQLVESGGGLVQPGGSLRLSCAASGFTFSSFGMHWVRQAPGKGLEWVAYISSDSSAIYYADTVKGRFTISRDNAKNSLYLQMNSLRDEDTAVYYCGRGRENIYYGSRLDYWGQGTTVTVSS
VL: DIQLTQSPSFLSASVGDRVTITCKASQNVDTNVAWYQQKPGKAPKALIYSASYRYSGVPSRFSGSGSGTDFTLTISSLQPEDFATYYCQQYNNYPFTFGQGTKLEIKR
notes: also called B7-H3 MG; Macrogenics' B7-H3
binding result [2]: binds | binding result [3]: binds | binding result [4]: binds

B3: B3-A6 (antibody, V domains shown)
VH: QVQLQQSGPGLVKPSQTLSLTCAISGDSVSSNSAAWNWIRQSPSRGLEWLGRTYYRSKWYNDYAVSVKSRITINPDTSKNQFSLQLNSVTPEDTAVYYCAREGIAVAALWDWGQGTLVTVSS
VL: QAVLTQPPSASGTPGQRVTISCSGSSSNIGSNYVSWYQQLPGTAPKLLMYSNNHRPSGVPDRFSGSKSGTSASLAISGLRTEDEADYYCAAWDDSLSGQVFGGGTKLTVL
notes: It was captured by anti-human Fc, so it was tested as an antibody with a human Fc
binding result [1]: binds

B4: B3-4F7 (antibody, V domains shown)
VH: QVQLVQSGAEVKKPGASVKVSCKASGYTFTSYGISWVRQAPGQGLEWMGWISAYNGNTNYAQKLQGRVTMTTDTSTSTAYMELRSLRSDDTAVYYCARDGYYGSGSHPWGQGTLVTVSS
VL: QSVVTQPPSVSGAPGQRVTISCTGNSSNIGAGYDVHWYQQLPGTAPKLLIYGNSNRPSGIPDRFSGSKSGTSATLGITGLQTGDEADYYCGTWDSSLSAGVFGTGTKVTVL
notes: as for B1
binding result [1]: binds

B5: B3-2E3 (antibody, V domains shown)
VH: QVQLVESGGGVVQPGRSLRLSCVASEFTFSSYTIHWVRQAPGKGLEWVAVISHDGSNKYYADSVKGRFTISRDNSKNTLYLQMSSLRAEDTAVYYCAGDRYVYNYYGMDVWGQGTTVTVSS
VL: DIVMTQSPSSLSAYVGDRVTITCRASQDIRTYLAWYQQKPGTAPKLLISGASILRSGVPSRFSGSGSGRDFTLSITSLQPEDFATYYCQQLYSYPPWTFGQGTKVEIK
notes: as for B1
binding result [1]: binds

B6: B3-2H1 (antibody, V domains shown)
VH: QVQLQQSGAEVEKPGASVEVSCRASGYTFTSYYIHWVRQAPGQGLEWVGMITPLSGGTTYAQKFQGRVTMTRDTSTSTVYMNLSSLRSEDTAVYFCARGGRAVASSFEFWGQGTLVTVSS
VL: QSVLTQPRSVSGSPGQSVTISCTGTSSDVGGYNYVSWYQQHPGKAPKLMIYDVSKRPSGVPDRFSGSKSGNTASLTISGLQAEDEADYYCCSYAGSYTEVFGTGTKVTVL
notes: as for B1
binding result [1]: binds

B7: anti-B7-H3 antibody (VA clone) (antibody, V domains shown)
VH: QVQLVQSGAEVKKPGASVKVSCKASGYTFTDSYMHWVRQAPGQGLEWMGWISPRTGGTDYAQKFQGRVTMTRDTSISTAYMELSRLRSDDTAVYYCARGSSRGNDYWGQGTLVTVSS
VL: QSVLTQPASVSGSPGQSITISCTGTGSDVGGYNYVSWYQQHPGKAPKLIIYDVTKRPSGFSNRFSGSKSGNTASLTISGLQAEDEADYYCSSYTSRRTYVFGTGTKLTVL
notes: It was tested as a fully human IgG ('IgG protein', captured by anti-human Fc); also called B7-H3-VA; B7-H3 VA
binding result (human B7-H7): no binding | binding result (human B7.2): no binding | binding result (human B7-H5): no binding | binding result (human B7.1): no binding | binding result (human B7-H4): no binding | binding result (human B7-H1): no binding | binding result (human B7-H6): no binding | binding result (human B7-H2): no binding | binding result [3]: binds

B8: anti-B7-H3 antibody (VA LALA clone) (antibody, V domains shown)
VH: B7 VH
VL: B7 VL
notes: also called B7-H3-VA LALA; B7-H3-VA-LALA
binding result (human B7-H7): no binding | binding result (human B7.2): no binding | binding result (human B7-H5): no binding | binding result (human B7.1): no binding | binding result (human B7-H4): no binding | binding result (human B7-H1): no binding | binding result (human B7-H6): no binding | binding result (human B7-H2): no binding
